Data: patent US20050124036

Key:
[1] = molecular target: T1, streptokinase (S8026) (Sigma, Deisenhofen), P00779
T1 chain: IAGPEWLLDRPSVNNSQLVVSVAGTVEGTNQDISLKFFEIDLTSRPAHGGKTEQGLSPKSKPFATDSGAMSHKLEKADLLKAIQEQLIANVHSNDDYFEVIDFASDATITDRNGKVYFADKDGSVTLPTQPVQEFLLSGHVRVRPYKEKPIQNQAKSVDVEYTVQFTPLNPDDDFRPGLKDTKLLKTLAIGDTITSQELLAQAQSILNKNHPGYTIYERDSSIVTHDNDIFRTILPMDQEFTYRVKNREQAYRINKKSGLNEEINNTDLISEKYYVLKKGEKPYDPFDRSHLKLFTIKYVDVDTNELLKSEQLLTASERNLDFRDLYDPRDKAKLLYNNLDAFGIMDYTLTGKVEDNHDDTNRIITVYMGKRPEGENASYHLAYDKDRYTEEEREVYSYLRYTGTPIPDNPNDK

[2] = molecular target: T2, plasminogen according to the present invention (20 mg/ml, Example 8)
T2 chain: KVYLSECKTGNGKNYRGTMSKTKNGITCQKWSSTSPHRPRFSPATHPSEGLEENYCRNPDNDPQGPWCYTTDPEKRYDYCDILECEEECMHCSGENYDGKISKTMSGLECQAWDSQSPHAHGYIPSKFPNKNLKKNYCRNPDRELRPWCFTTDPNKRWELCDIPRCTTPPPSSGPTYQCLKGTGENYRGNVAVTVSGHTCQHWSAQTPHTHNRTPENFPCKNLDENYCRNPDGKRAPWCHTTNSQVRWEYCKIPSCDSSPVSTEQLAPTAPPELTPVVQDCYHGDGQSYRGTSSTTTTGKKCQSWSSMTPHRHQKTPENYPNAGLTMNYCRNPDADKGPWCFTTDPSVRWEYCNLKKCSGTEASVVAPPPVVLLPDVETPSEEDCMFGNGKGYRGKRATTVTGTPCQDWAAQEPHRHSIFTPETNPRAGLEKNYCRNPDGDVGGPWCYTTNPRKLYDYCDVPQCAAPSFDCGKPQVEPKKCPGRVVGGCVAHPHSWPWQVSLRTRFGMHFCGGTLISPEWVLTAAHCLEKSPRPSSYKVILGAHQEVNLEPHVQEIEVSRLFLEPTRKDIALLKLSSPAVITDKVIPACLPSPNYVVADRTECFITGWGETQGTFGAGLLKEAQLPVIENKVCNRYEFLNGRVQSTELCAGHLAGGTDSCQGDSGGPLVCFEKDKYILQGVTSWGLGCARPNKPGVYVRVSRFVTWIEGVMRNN

B1: recombinant human Lys-plasminogen secreted by Pichia pastoris carrying pSM54.2, pAC37.1 or pJW9.1 (alpha-factor prepropeptide joined by a Kex2 and two Ste13 … (protein)
chain: T2 chain
plasminogen activity after streptokinase activation, fermentation for 250 h, KM71H/pJW9.1-3 [1]: a plasminogen activity of 1375 U/l
plasminogen activity of culture supernatant after activation with streptokinase, 72 h of induction, KM71H/pSM54.2-1/1 [1]: 2 U/l
plasminogen activity of culture supernatant after activation with streptokinase, 72 h of induction, KM71H/pSM54.2-1/2 [1]: 8 U/l
plasminogen activity of culture supernatant after activation with streptokinase, 72 h of induction, KM71H/pSM54.2-1/3 [1]: 6 U/l
plasminogen activity of culture supernatant after activation with streptokinase, 118 h of induction, KM71H/pSM54.2-1/1 [1]: 8 U/l
plasminogen activity of culture supernatant after activation with streptokinase, 118 h of induction, KM71H/pSM54.2-1/2 [1]: 17 U/l
plasminogen activity of culture supernatant after activation with streptokinase, 118 h of induction, KM71H/pSM54.2-1/3 [1]: 13 U/l
plasminogen activity of culture supernatant after activation with streptokinase, 120 h of induction, KM71/pAC37.1-3/1 [1]: an activity of 120 U/l
plasminogen activity of culture supernatant after activation with streptokinase, 216 h of induction, KM71/pAC37.1-3/1 [1]: an activity of 190 U/l
plasminogen activity of culture supernatant after activation with streptokinase, BSM minimal medium, 120 h of induction, KM71/pAC37.1-3/1 [1]: a plasminogen activity of 193 U/l
plasminogen activity of culture supernatant after activation with streptokinase, BSM minimal medium, 168 h of induction, KM71/pAC37.1-3/1 [1]: 289 U/l

B2: recombinant human Lys-plasminogen secreted by Pichia pastoris KM71H/pMHS476.1 (alpha-factor prepropeptide joined by a Kex2 cleavage site) (protein)
chain: T2 chain
plasminogen activity of culture supernatant after activation with streptokinase (N-tosyl-Gly-Pro-Lys-pNA conversion), 72 h of induction, KM71H/pMHS476.1-1/1 [1]: 2 U/l
plasminogen activity of culture supernatant after activation with streptokinase (N-tosyl-Gly-Pro-Lys-pNA conversion), 72 h of induction, KM71H/pMHS476.1-1/2 [1]: 2 U/l
plasminogen activity of culture supernatant after activation with streptokinase (N-tosyl-Gly-Pro-Lys-pNA conversion), 72 h of induction, KM71H/pMHS476.1-1/3 [1]: 1 U/l
plasminogen activity of culture supernatant after activation with streptokinase (N-tosyl-Gly-Pro-Lys-pNA conversion), 118 h of induction, KM71H/pMHS476.1-1/1 [1]: 7 U/l
plasminogen activity of culture supernatant after activation with streptokinase (N-tosyl-Gly-Pro-Lys-pNA conversion), 118 h of induction, KM71H/pMHS476.1-1/2 [1]: 9 U/l
plasminogen activity of culture supernatant after activation with streptokinase (N-tosyl-Gly-Pro-Lys-pNA conversion), 118 h of induction, KM71H/pMHS476.1-1/3 [1]: 8 U/l

B3: Clostripain (protein)
chain: NKNQKVTIMYYCDADNNLEGSLLNDIEEMKTGYKDSPNLNLIALVDRSPRYSSDEKVLGEDFSDTRLYKIEHNKANRLDGKNEFPEISTTSKYEANMGDPEVLKKFIDYCKSNYEADKYVLIMANHGGGAREKSNPRLNRAICWDDSNLDKNGEADCLYMGEISDHLTEKQSVDLLAFDACLMGTAEVAYQYRPGNGGFSADTLVASSPVVWGPGFKYDKIFDRIKAGGGTNNEDDLTLGGKEQNFDPATITNEQLGALFVEEQRDSTHANGRYDQHLSFYDLKKAESVKRAIDNLAVNLSNENKKSEIEKLRGSGIHTDLMHYFDEYSEGEWVEYPYFDVYDLCEKINKSENFSSKTKDLASNAMNKLNEMIVYSFGDPSNNFKEGKNGLSIFLPNGDKKYSTYYTSTKIPHWTMQSWYNSIDTVKYGLNPYGKLSWCKDGQDPEINKVGNWFELLDSWFDKTNDVTGGVNHYQW
plasmin activity after activation [2]: 1.7 U/mg
